Laboratory results: doi:10.64898/2025.12.19.695307 (bioRxiv, 2025)

Tests used:
[1] = molecular target: SARS-CoV-2 Delta (B.1.617.2) RBD (SARS-CoV-2 Delta (B.1.617.2), L452R); assay: BLI
SARS-CoV-2 JD.1.1 RBD = SARS-CoV-2 JD.1.1 RBD (SARS-CoV-2 Omicron JD.1.1, strain); assay: BLI
SARS-CoV-2 BA.2.86 RBD = SARS-CoV-2 BA.2.86 RBD (SARS-CoV-2 Omicron BA.2.86, strain, N354 glycosylation); assay: BLI
[2] = molecular target: SARS-CoV-2 Omicron XBB.1.5 RBD (SARS-CoV-2 Omicron XBB.1.5, F490S); assay: BLI
[3] = molecular target: SARS-CoV-2 Omicron EG.5.1 RBD (SARS-CoV-2 Omicron EG.5.1, F490S); assay: BLI
SARS-CoV-2 KP.3 RBD [4] = molecular target: T1, SARS-CoV-2 KP.3 RBD (SARS-CoV-2 Omicron KP.3, strain, N354 glycosylation); assay: BLI
[5] = molecular target: SARS-CoV-2 Kappa (B.1.617.1) RBD (SARS-CoV-2 Kappa (B.1.617.1), L452R); assay: BLI
SARS-CoV-2 HK.3 RBD = SARS-CoV-2 HK.3 RBD (SARS-CoV-2 Omicron HK.3, strain); assay: BLI
SARS-CoV-2 JN.1 RBD = SARS-CoV-2 JN.1 RBD (SARS-CoV-2 Omicron JN.1, strain, N354 glycosylation); assay: BLI
[6] = molecular target: SARS-CoV-2 Omicron BA.4/5 RBD (SARS-CoV-2 Omicron BA.4/5, L452R); assay: BLI
[7] = molecular target: SARS-CoV-2 Omicron BQ.1.1 RBD (SARS-CoV-2 Omicron BQ.1.1, R346T | L452R); assay: BLI
SARS-CoV-2 KP.3 RBD [8] = molecular target: T1, SARS-CoV-2 KP.3 RBD; assay: cell-based or functional assay
[9] = molecular target: SARS-CoV-2 Omicron BF.7 RBD (SARS-CoV-2 Omicron BF.7, L452R); assay: BLI
[10] = molecular target: SARS-CoV-2 Omicron BA.2.13 RBD (SARS-CoV-2 Omicron BA.2.13, L452M); assay: BLI
[11] = molecular target: SARS-CoV-2 Omicron BA.2.12.1 RBD (SARS-CoV-2 Omicron BA.2.12.1, L452Q); assay: BLI
[12] = molecular target: SARS-CoV-2 Alpha (B.1.1.7) RBD (SARS-CoV-2 Alpha (B.1.1.7), strain); assay: BLI
[13] = molecular target: SARS-CoV-2 Omicron XBB RBD (SARS-CoV-2 Omicron XBB, F490S); assay: BLI
[14] = molecular target: SARS-CoV-2 Omicron BA.1 RBD (SARS-CoV-2 Omicron BA.1, strain); assay: BLI
[15] = molecular target: SARS-CoV-2 Omicron BA.1.1 RBD (SARS-CoV-2 Omicron BA.1.1, strain); assay: BLI
[16] = molecular target: SARS-CoV-2 Omicron BA.2.75 RBD (SARS-CoV-2 Omicron BA.2.75, strain); assay: BLI
[17] = molecular target: SARS-CoV-2 Omicron BA.3 RBD (SARS-CoV-2 Omicron BA.3, strain); assay: BLI
[18] = molecular target: SARS-CoV-2 Gamma (P.1) RBD (SARS-CoV-2 Gamma (P.1), strain); assay: BLI
[19] = molecular target: SARS-CoV-2 Beta (B.1.351) RBD (SARS-CoV-2 Beta (B.1.351), strain); assay: BLI
[20] = molecular target: SARS-CoV-2 Omicron EG.5 RBD (SARS-CoV-2 Omicron EG.5, R346T | F490S); assay: BLI
[21] = molecular target: SARS-CoV-2 Omicron BA.2 RBD (SARS-CoV-2 Omicron BA.2, strain); assay: BLI
SARS-CoV-2 WT S-trimer = SARS-CoV-2 WT S-trimer (SARS-CoV-2 ancestral (WT), UniProt P0DTC2, deletion of amino acids PRRA (681-684)); assay: BLI

B1: ZL525 (antibody, V domains shown)
V domain 1: QVQLVQSGAEVKKPGSSMKVSCQASGGTFSSHPISWIRQAPGQGLEWMGRIIPIAGMTDYGQKFQGRITITADTSTSTSYVELRGLRSQDTAFYYCAKDVGYSDYGSAYYFHTWGQGTLITVSS
V domain 2: QSVLTQPPSVSGAPGQRVTISCTGSNSNIGAGYDVHWYQQLPGTAPKLLIYRNNKRPSGVPDRFSGSKSDTSASLAITGLQAEDEAHYYCQSFDSSLGGSLFGGGTKLAVL
Binder B1 has a Kd [1] of under 0.71 nM, a Kd (SARS-CoV-2 JD.1.1 RBD) of under 1.11 nM and a Kd (SARS-CoV-2 BA.2.86 RBD) of under 1.11 nM. It also gave a Kd [2] of under 0.71 nM, a Kd [3] of under 0.71 nM and a Kd (SARS-CoV-2 KP.3 RBD [4]) of under 1.11 nM. It also gave a Kd [5] of under 0.71 nM, a Kd (SARS-CoV-2 HK.3 RBD) of under 1.11 nM and a Kd (SARS-CoV-2 JN.1 RBD) of under 1.11 nM. For the same binder, the Kd [6] was under 0.71 nM, the Kd [7] was under 0.71 nM and the “IC50 of neutralisation of authentic KP.3 virus (focus reduction, Vero E6)” value (SARS-CoV-2 KP.3 RBD [8]) was 0.107 µg/mL.

B2: R1-32 (antibody, V domains shown)
VH: EVQLVESGAEVKKPGSSVKVSCKASGGTFSSYAISWVRQAPGQGLEWMGGIIPILGIANYAQKFQGRVTITADKSTSTAYMELSSLRSEDTAVYYCARENGYSGYGAAANFDLWGRGTLVTVSS
VL: QSVLTQPPSVSGAPGQRVTISCTGSSSNIGAGYDVHWYQQLPGTAPKLLIYGNSNRPSGVPDRFSGSKSGTSASLAITGLQAEDEADYYCQSYDSSLSGSVFGGGTKLTVL
Work on B2 yielded a Kd [1] of over 55 nM, a Kd [9] of over 55 nM and a Kd [10] of over 55 nM. It also gave a Kd [5] of over 55 nM, a Kd [11] of over 55 nM and a Kd [6] of over 55 nM. The Kd [7] was over 55 nM.

B3: C092 (antibody, V domains shown)
VH: QVQLVQSGAEVKKPGSSVKVSCKASGGSFTNHFISWVRQAPGQGLEWMGRIIPILGTANYAQNFQGRVMMTADKSTSTAYMELSSLRSEDTAVYYCARDSGYSGYGSTYYMDVWGKGTTVTVSS
VL: QSVLTQPPSVSGAPGQRVTISCTGSNSNIGAGYDVHWYQQLPGAAPKLLIYGNNNRPSGVPDRFSGSKSDTSASLAITGLQVEDEADYYCQSYDSSLSDSVFGSGTKVTVL
In the case of B3, the Kd [12] is reported as under 0.3 nM, the Kd [1] is reported as under 2.1 nM and the Kd [9] is reported as under 2.1 nM. For the same binder, the Kd [13] was under 4.5 nM, the Kd [10] was under 2.1 nM and the Kd [14] was under 0.3 nM. The Kd [15] was under 0.3 nM, the Kd [2] was under 4.5 nM and the Kd [16] was under 0.3 nM. For the same binder, the Kd [3] was under 4.5 nM, the Kd [17] was under 0.3 nM and the Kd [18] was under 0.3 nM. It also gave a Kd [19] of under 0.3 nM, a Kd [5] of under 2.1 nM and a Kd [20] of under 4.5 nM. The Kd [21] was under 0.3 nM, the binding result (SARS-CoV-2 WT S-trimer) was “binds” and the Kd [11] was under 2.1 nM. It also gave a Kd [6] of under 2.1 nM and a Kd [7] of under 2.1 nM.

B4: C807 (antibody, V domains shown)
VH: QVQLVQSGAEAKKPGSSVKVSCKASGGTFKSYIINWVRQAPGQGLEWMGEIIPIFGTANYAQKFQGRVTSTADESTSTAYMELSSLKSEDTAVYYCARGRGYSGYGASYYFDYWGQGTLVTVSS
VL: QSVLTQPPSVSGAPGQRVTISCTGSNSNIGAGYDVHWYQQLPGTAPKLLIYANSNRPSGVPDRFSGSKSGTSASLAITGLQAEDEADYYCQSYDSGLSGSVFGGGTKLTVL
For B4, the Kd [12] was under 0.3 nM, the Kd [1] was under 2.1 nM and the Kd [9] was under 2.1 nM. The Kd [13] was under 4.5 nM, the Kd [10] was under 2.1 nM and the Kd [14] was under 0.3 nM. It also gave a Kd [15] of under 0.3 nM, a Kd [2] of under 4.5 nM and a Kd [16] of under 0.3 nM. The Kd [3] was under 4.5 nM, the Kd [17] was under 0.3 nM and the Kd [18] was under 0.3 nM. For the same binder, the Kd [19] was under 0.3 nM, the Kd [5] was under 2.1 nM and the Kd [20] was under 4.5 nM. For the same binder, the Kd [21] was under 0.3 nM, the binding result (SARS-CoV-2 WT S-trimer) was “binds” and the Kd [11] was under 2.1 nM. It also gave a Kd [6] of under 2.1 nM and a Kd [7] of under 2.1 nM.

B5: BD56-104 (antibody, V domains shown)
VH: QVQLVQSGAEVKTPGSSVKVSCKASGGTFGSHSITWVRQAPGQGLEWMGRVIPILGIPDFAESFQGRVAITADRSTSTAHMELSRLRSEDTAVYYCARDVGYSGSGSSNYFDSWGQGTLVTVSS
VL: QSVLTQPPSVSGAPGQRVTISCTGSNSNIGAGYDVHWYRQLPGTAPKLLIYVNNNRPSGVPDRFSGSRSGASASLAITGLQAEDEAEYYCQSYDSSLSGSIFGGGTKLTVL
B5 showed a Kd [12] of under 0.3 nM, a Kd [1] of under 2.1 nM and a Kd [9] of under 2.1 nM. The Kd [13] was under 4.5 nM, the Kd [10] was under 2.1 nM and the Kd [14] was under 0.3 nM. For the same binder, the Kd [15] was under 0.3 nM, the Kd [2] was under 4.5 nM and the Kd [16] was under 0.3 nM. For the same binder, the Kd [3] was under 4.5 nM, the Kd [17] was under 0.3 nM and the Kd [18] was under 0.3 nM. It also gave a Kd [19] of under 0.3 nM, a Kd [5] of under 2.1 nM and a Kd [20] of under 4.5 nM. For the same binder, the Kd [21] was under 0.3 nM, the binding result (SARS-CoV-2 WT S-trimer) was “binds” and the Kd [11] was under 2.1 nM. The Kd [6] was under 2.1 nM and the Kd [7] was under 2.1 nM.

B6: BD56-597 (antibody, V domains shown)
VH: QVQLVQSGAEVKKPGSSVKVSCKASGGTFSTYPISWVRQAPGQGVEWMGAIIPILGTTDYAQIFQGRVTITADKSTSTAYMELSSLRPEDTAVYYCARERGYSGYGAAYYFDSWGQGTLVTVSS
VL: QSVLTQPPSVSGAPGQRVTISCTGSDSNIGAGYDVHWYQQLPGTAPKLLIYVNINRPSGVPDRFSGSKSATSASLAITGLQAEDEADYYCQSYDSSLSGVVFGGGTKLTVL
Work on B6 yielded a Kd [12] of under 0.3 nM, a Kd [1] of under 2.1 nM and a Kd [9] of under 2.1 nM. The Kd [13] was under 4.5 nM, the Kd [10] was under 2.1 nM and the Kd [14] was under 0.3 nM. The Kd [15] was under 0.3 nM, the Kd [2] was under 4.5 nM and the Kd [16] was under 0.3 nM. For the same binder, the Kd [3] was under 4.5 nM, the Kd [17] was under 0.3 nM and the Kd [18] was under 0.3 nM. It also gave a Kd [19] of under 0.3 nM, a Kd [5] of under 2.1 nM and a Kd [20] of under 4.5 nM. The Kd [21] was under 0.3 nM, the binding result (SARS-CoV-2 WT S-trimer) was “binds” and the Kd [11] was under 2.1 nM. For the same binder, the Kd [6] was under 2.1 nM and the Kd [7] was under 2.1 nM.

B7: C092-germline HCDR1 (antibody, V domains shown)
VH: QVQLVQSGAEVKKPGSSVKVSCKASGGTFSSYAISWVRQAPGQGLEWMGRIIPILGTANYAQNFQGRVMMTADKSTSTAYMELSSLRSEDTAVYYCARDSGYSGYGSTYYMDVWGKGTTVTVSS
VL: QSVLTQPPSVSGAPGQRVTISCTGSNSNIGAGYDVHWYQQLPGAAPKLLIYGNNNRPSGVPDRFSGSKSDTSASLAITGLQVEDEADYYCQSYDSSLSDSVFGSGTKVTVL
With B7 the “fold reduction in binding relative to C092” value [1] was about 10 fold, the “fold reduction in binding relative to C092” value [5] was about 10 fold and the “fold reduction in binding relative to C092” value [6] was about 10 fold.

B8: BD56-104+D59NH+E62QH (antibody, V domains shown)
VH: QVQLVQSGAEVKTPGSSVKVSCKASGGTFGSHSITWVRQAPGQGLEWMGRVIPILGIPNFAQSFQGRVAITADRSTSTAHMELSRLRSEDTAVYYCARDVGYSGSGSSNYFDSWGQGTLVTVSS
VL: QSVLTQPPSVSGAPGQRVTISCTGSNSNIGAGYDVHWYRQLPGTAPKLLIYVNNNRPSGVPDRFSGSRSGASASLAITGLQAEDEAEYYCQSYDSSLSGSIFGGGTKLTVL
With B8 the “fold reduction in binding relative to BD56-104” value [6] was about 100 fold.

B9: R1-32-AAM (R1-32-artificial-affinity-matured) (antibody, V domains shown)
VH: EVQLVESGAEVKKPGSSVKVSCKASGGTFSSYFISWVRQAPGQGLEWMGGIIPILGIADYAEKFQGRVTITADKSTSTAYMELSSLRSEDTAVYYCARENGYSGYGAAYNFDLWGRGTLVTVSS
VL: QSVLTQPPSVSGAPGQRVTISCTGSDSNIGAGYDVHWYQQLPGTAPKLLIYGNSNRPSGVPDRFSGSKSDTSASLAITGLQAEDEADYYCQSYDSSLSDSVFGGGTKLTVL
B9 was tested, and the “fold enhancement of affinity relative to R1-32” value [1] was about 100 fold, the “fold enhancement of affinity relative to R1-32” value [9] was about 100 fold and the “fold enhancement of affinity relative to R1-32” value [5] was about 100 fold. For the same binder, the “fold enhancement of affinity relative to R1-32” value [6] was about 100 fold and the “fold enhancement of affinity relative to R1-32” value [7] was about 100 fold.
